Read-outs that look alike come from different tables or passages of the source. Each block holds one binder with its values, some of them ahead of it.
What was measured:
[1] = target: T1, human wild-type RON (cell surface) (human, UniProt Q04912 25-1400); test: FACS titration on PC3 cells, 4 C
T1 construct: whole, on cells; also called Human RON; wt RON
Procedure: (§1) Binding to cell surface human wild-type RON and the delta 160 RON variant by antibodies 29B06 and 07F01 was measured at 4° C., using Fluorescence Activated Cell Sorting (FACS). PC3 cells expressing the human wild-type RON, and HT29 cells expressing the delta 160 variant, were harvested using cell dissociation buffer (Invitrogen), washed twice with FACS buffer (PBS with 0.5% BSA), and treated for 10 minutes with Cyto Q Antibody diluent and FC receptor block (Innovex Biosciences, Richmond, Calif.). Purified antibodies were diluted in FACS buffer over a concentration range from 0.02 nM to 40 nM. Cells were incubated with 100 μl of antibody for one hour, washed with FACS buffer three times, and incubated for 45 minutes with goat anti-mouse PE-conjugated antibody (Jackson ImmunoResearch Laboratories, West Grove, Pa.). Cells were washed three times with FACS buffer, resuspended in 300 μl of FACS buffer, and analyzed using a Beckman Coulter Cytomics FC 500 FACS instrument.

[2] = target: T1, human wild-type RON (cell surface); test: FACS titration on PC3 cells, 4 C; remark: listed apart in the source
Procedure: Binding to cell surface human wild-type RON and the delta 160 RON variant by antibodies 07F01, Sh07F01-62, 29B06, and Sh29B06-78 was measured at 4° C., using Fluorescence Activated Cell Sorting (FACS). PC3 cells expressing the human wild-type RON, and HT29 cells expressing the delta 160 variant, were harvested using cell dissociation buffer (Invitrogen), washed twice with FACS buffer (PBS with 0.5% BSA), and treated 10 minutes with Cyto Q Antibody diluent and FC receptor block (Innovex Biosciences, Richmond, Calif.). Purified antibodies were diluted in FACS buffer over a concentration range from 0.01 nM to 25 nM. Cells were incubated with 100 μl of antibody for one hour, washed with FACS buffer three times, and incubated for 45 minutes with goat anti-mouse PE-conjugated antibody (Jackson ImmunoResearch Laboratories, West Grove, Pa.) or donkey anti-human PE-conjugated antibody (Jackson ImmunoResearch Laboratories, West Grove, Pa.). Cells were washed three times with FACS buffer, resuspended in 300 μl of FACS buffer, and analyzed using a Beckman Coulter Cytomics FC 500 FACS instrument. All four antibodies were compared in the same experiment.

[3] = target: T2, delta 160 RON variant (cell surface) (human, UniProt Q04912 25-1400); test: FACS titration on HT29 cells, 4 C
T2 construct: whole, on cells; Splice variant; also called delta 160 variant
Procedure: as §1

[4] = target: T3, recombinant human RON-ECD/mFc fusion protein (human, UniProt Q04912 25-957); test: SPR, Ab captured on anti-mouse IgG, 25 C, AVG
T3 construct: extracellular domain; also called rhRON ECD/mFc; rhRon ECD/mFc; not shown: THXmFC: Thrombin/His tag/Factor Xa-AJ mouse IgG-Fc
Procedure: The binding affinities and kinetics of binding of antibodies 07F01, 29B06, 17F06, 18H09, and 12B11 to recombinant human RON-ECD/mFc fusion protein (rhRON ECD/mFc) and recombinant human RON SEMA and PSI domains (rhRON SEMA+PSI) (R&D Systems, Inc., Minneapolis, Minn.) were measured by surface plasmon resonance, using a Biacore T100 instrument (GE Healthcare, Piscataway, N.J.).
Rabbit anti-mouse IgGs (GE Healthcare) were immobilized on carboxymethylated dextran CM4 sensor chips (GE Healthcare) by amine coupling, according to a standard protocol. Analyses were performed at 25° C. and 37° C., using PBS containing 0.05% surfactant P20 as running buffer. The antibodies were captured in individual flow cells at a flow rate of 10 μl/min. Injection time was varied for each antibody to yield an Rmax between 30 and 60 RU. 250 μg/mL mouse Fc were injected at 30 μl/min for 120 seconds to block non-specific binding of antibodies to Fc portion of the protein when needed. Buffer, rhRon ECD/mFc or rhRON SEMA+PSI diluted in running buffer was injected sequentially over a reference surface (no antibody captured) and the active surface (antibody to be tested) for 300 seconds at 60 μl/minute. The dissociation phase was monitored for up to 3600 seconds. The surface was then regenerated with two 60-second injections of 10 mM Glycine-HCl, pH 1.7, at a flow rate of 60 μl/min. The rhRON ECD/mFc or rhRON SEMA+PSI concentration range tested was 0.625 nM to 20 nM.
Kinetic parameters were determined using the kinetic function of the BIAevaluation software (GE Healthcare) with double reference subtraction. Kinetic parameters for each antibody, kₐ (association rate constant), kd (dissociation rate constant) and KD (equilibrium dissociation constant) were determined.

[5] = target: T4, recombinant human RON SEMA and PSI domains (human, UniProt Q04912 25-571); test: ECL competition, MSP binding to coated hRON SEMA+PSI; competitor MSP; average n=3
T4 construct: domain: SEMA+PSI; Commercial protein (R&D Systems); also called rhRON SEMA+PSI; hRON SEMA+PSI
Procedure: The biochemical neutralization assay measures inhibition of MSP binding to hRON by antibodies in hybridoma supernatants, using electrochemiluminescence (ECL). MA2400 96-well high binding plates (Meso Scale Discovery) were coated with 25 μl of 0.42 μg/mL hRON SEMA+PSI (an N-terminal portion of the ECD of hRON; R&D Systems) in PBS for one hour at room temperature with agitation. The plates were washed four times with PBS+0.1% Tween-20 (PBST), and blocked with 150 μl of charcoal-stripped fetal bovine serum (FBS) (Gibco). The hybridoma supernatant were added and incubated for 45 minutes at room temperature. After incubation, 5 μl of MSP (3 μg/mL) in charcoal stripped FBS was added to each well, and incubated for 45 minutes. The plate was washed four times with PBST, and 25 μl of 1 μg/mL biotinylated anti-MSP antibody (R&D Systems) was added to the plates for one hour at room temperature with agitation. The plates were washed four times with PBST, and incubated with 25 μl of 1 μg/mL ST-streptavidin (Meso Scale Discovery) for one hour at room temperature with agitation. The plates were washed four times with PBST, and 150 μl read buffer (Meso Scale Discovery) was added to each well before the plates were analyzed on a Sector Imager 2400 (Meso Scale Discovery) instrument. Antibodies 07F01, 18H09 and 29B06 each blocked MSP binding to hRON SEMA+PSI in this neutralization assay.
Antibodies 07F01, 12B11, 17F06, 18H09, and 29B06 were tested for inhibition of MSP binding to hRON SEMA+PSI, as measured by electrochemiluminescence (ECL) assay as described in Example 3. The antibodies (concentration range: 0.006-10 μg/mL) were incubated for 45 minutes at room temperature.

Kd [1]: 0.032 nM | Kd [2]: 0.053 nM | Kd [3]: 0.024 nM | Kd [4]: 0.23 nM | koff [4]: 9.3e-05 s⁻¹ | kon [4]: 400000 M⁻¹ s⁻¹ | IC50 [5]: 0.26 nM
B1: 07F01 (antibody, mouse IgG1, kappa, V domains shown)
VH: EVKLLESGGGLVQPGGSLKLSCAASGFDFSRHWMSWVRLAPGKGLEWIAEINPDSRTINYTPSLKEKFIISRDNAKNSLFLQMNRVRSEDTALYYCARRVRIHYYGAMDCWGQGTSVTVSS
VL: DIVLTQSQKIVSTSVGARVSVTCKASQNVGSSLVWYQQKPGQSPKTLIYSASFRYSGVPDRFTGSGSGTDFTLTISNVQSEDLADYFCQQYNNYPLTFGAGTKLELKR
notes: Murine hybridoma monoclonal, IgG1/kappa; also called mu07F01; antibody 07F01

Kd [1]: 0.133 nM | Kd [2]: 0.136 nM | Kd [3]: 0.146 nM | Kd [4]: 0.65 nM | koff [4]: 0.00013 s⁻¹ | kon [4]: 200000 M⁻¹ s⁻¹ | IC50 [5]: 1.11 nM
B2: 29B06 (antibody, mouse IgG1, kappa)
heavy: EVQLQESGPSLVKPSQTLSLTCSVTGDSITSGYWNWIRKFPGNKLEYMGYISYSGKTYYNPSLKSRISITRDTSKNHYYLQLISVTAEDTATYYCARSKYDYAMDYWGQGTSVTVSSAKTTPPSVYPLAPGSAAQTNSMVTLGCLVKGYFPEPVTVTWNSGSLSSGVHTFPAVLQSDLYTLSSSVTVPSSTWPSETVTCNVAHPASSTKVDKKIVPRDCGCKPCICTVPEVSSVFIFPPKPKDVLTITLTPKVTCVVVDISKDDPEVQFSWFVDDVEVHTAQTQPREEQFNSTFRSVSELPIMHQDWLNGKEFKCRVNSAAFPAPIEKTISKTKGRPKAPQVYTIPPPKEQMAKDKVSLTCMITDFFPEDITVEWQWNGQPAENYKNTQPIMDTDGSYFVYSKLNVQKSNWEAGNTFTCSVLHEGLHNHHTEKSLSHSPGK
light: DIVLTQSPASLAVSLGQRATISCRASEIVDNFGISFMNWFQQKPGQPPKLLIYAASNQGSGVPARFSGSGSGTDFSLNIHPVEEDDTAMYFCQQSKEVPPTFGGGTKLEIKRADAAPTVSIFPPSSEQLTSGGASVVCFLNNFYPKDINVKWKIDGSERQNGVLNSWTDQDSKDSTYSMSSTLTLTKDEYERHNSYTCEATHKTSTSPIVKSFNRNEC
notes: Murine hybridoma monoclonal, IgG1/kappa; also called mu29B06; antibody 29B06

Source: patent publication US20120027773A1 (AVEO PHARMACEUTICALS, published 2012)
